The target of the assay is C-type lectin-like receptor 2 (CLEC-2) on platelets (human (endogenous in platelets of healthy donors)) (UniProt Q9P126).
Sequence of UniProt Q9P126 (Q9P126 whole entry): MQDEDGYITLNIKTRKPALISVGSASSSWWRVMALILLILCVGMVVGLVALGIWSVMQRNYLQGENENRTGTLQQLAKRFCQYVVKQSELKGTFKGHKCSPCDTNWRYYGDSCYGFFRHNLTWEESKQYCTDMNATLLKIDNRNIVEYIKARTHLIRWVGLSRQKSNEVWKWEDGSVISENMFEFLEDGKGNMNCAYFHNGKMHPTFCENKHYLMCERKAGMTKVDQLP

B1: Podoplanin (PDPN), endogenous on human cancer cell lines (natural protein)
chain: ASTGQPEDDTETTGLEGGVAMPGAEDDVVTPGTSEDRYKSGLTTLVATSVNSVTGIRIEDLPTSESTVHAQEQSPSATASNVATSHSTEKVDGDTQTTVEKDGLSTVTLVGIIVGVLLAIGFIGAIIVVVMRKMSGRYSP
Take B1: the inhibition by mAb SZ168 (10, 15 μg/mL) of platelet aggregation induced by NCI-H226 cells in human platelet-rich plasma; maximal inhibition ratio came out at 74.2%; the inhibition by mAb SZ168 (15, 20 μg/mL) of platelet aggregation induced by C8161 cells in human platelet-rich plasma; maximal inhibition ratio at 20 μg/mL stood at 73.9%; the inhibition by mAb SZ168 (20, 25 μg/mL) of platelet aggregation induced by CNE-2 cells in human platelet-rich plasma; maximal inhibition ratio at 25 μg/mL was 77.1%.

B2: Human podoplanin expressed on CHO cells (CHO/hPDPN) (natural protein)
chain: B1 chain
Consider B2, for which the inhibition by mAb SZ168 (10, 15 μg/mL) of platelet aggregation induced by CHO/hPDPN cells in human platelet-rich plasma; maximal inhibition ratio was 72.6%.

For the origin of these results see PMC6580467.
